Legend:
[1] = biological target: P66 T176M (site-directed mutant, B. burgdorferi B31 A3) (Borrelia burgdorferi (strain B31 A3))
[2] = biological target: P66 T176M (site-directed mutant, B. burgdorferi B31 A3) (Borrelia burgdorferi (strain B31 A3)); assay: native gel or EMSA; BN-PAGE of outer membrane proteins (B-fractions) of the B. burgdorferi strains, immunoblot probed with rabbit polyclonal antibody D8713 against P66
[3] = biological target: P66 G584R (site-directed mutant, B. burgdorferi B31 A3) (Borrelia burgdorferi (strain B31 A3))
[4] = biological target: P66 G584R (site-directed mutant, B. burgdorferi B31 A3) (Borrelia burgdorferi (strain B31 A3)); assay: native gel or EMSA; BN-PAGE of outer membrane proteins (B-fractions) of the B. burgdorferi strains, immunoblot probed with rabbit polyclonal antibody D8713 against P66
[5] = biological target: P66 G175V (site-directed mutant, B. burgdorferi B31 A3) (Borrelia burgdorferi (strain B31 A3))
[6] = biological target: P66 G175V (site-directed mutant, B. burgdorferi B31 A3) (Borrelia burgdorferi (strain B31 A3)); assay: native gel or EMSA; BN-PAGE of outer membrane proteins (B-fractions) of the B. burgdorferi strains, immunoblot probed with rabbit polyclonal antibody D8713 against P66

Substance: P66 T176M (site-directed mutant, B. burgdorferi B31 A3) (natural protein)
- black lipid bilayer (BLB) channel conductance of B-fractions in 1 M KCl, 20 mV [1]: < 5 nS
- stoichiometry N [2]: 3

Substance: P66 G584R (site-directed mutant, B. burgdorferi B31 A3) (natural protein)
- black lipid bilayer (BLB) channel conductance of B-fractions in 1 M KCl, 20 mV [3]: < 5 nS
- stoichiometry N [4]: 3

Substance: P66 G175V (site-directed mutant, B. burgdorferi B31 A3) (natural protein)
- black lipid bilayer (BLB) channel conductance of B-fractions in 1 M KCl, 20 mV [5]: < 5 nS
- stoichiometry N [6]: 3

Reference: paper PMC11790652
